Blank lines part the entries; values can stand above or below the molecule they belong to.
Tests used:
[1] = biological target: FDH1: formate dehydrogenase from Candida boidinii with peptide-1 (MEEVV) fused to its C-terminus (Candida boidinii); assay: SEC; each tagged enzyme alone; molecular weight estimated from the elution
TRAP1-3 = biological target: T1, TRAP1-3; assay: fluorescence anisotropy of NADH; format: binding; conditions: PBS (150 mM NaCl, 50 mM phosphate) pH 7.4, 25 °C, 1 µM NADH titrated with 0-100 µM TRAP1-3; one-site fit
T1 construct: designed fusion of TRAP1 and TRAP3 TPR modules, synthetic gene in pET-28b(+), E. coli C41, Ni-NTA; His-tag kept in assembly; mass 32,621 (kDa [sic])

purified protein [2] = substrate: CC(=O)C(=O)O; assay: purified protein; format: biochemical, Geobacillus stearothermophilus; conditions: saturating NADH, 500 mM ammonium chloride, 25 mM potassium phosphate pH 8.0, 30 °C, AlaDH3 bound alone to TRAP1-3, apparent, substrate inhibition fit
purified protein [3] = substrate: NC(=O)C1=CN([C@@H]2O[C@H](COP(=O)(O)OP(=O)(O)OC[C@H]3O[C@@H](n4cnc5c(N)ncnc54)[C@H](O)[C@@H]3O)[C@@H](O)[C@H]2O)C=CC1; assay: purified protein; format: biochemical, Geobacillus stearothermophilus; conditions: saturating pyruvate, 500 mM ammonium chloride, 25 mM potassium phosphate pH 8.0, 30 °C, AlaDH3 bound alone to TRAP1-3, apparent
purified protein [4] = substrate: O=CO; assay: purified protein; format: biochemical, [Candida] boidinii; conditions: saturating NAD+, 25 mM sodium phosphate pH 7.0, 30 °C, FDH1 bound alone to TRAP1-3, apparent
purified protein [5] = substrate: NC(=O)c1ccc[n+]([C@@H]2O[C@H](COP(=O)(O)OP(=O)(O)OC[C@H]3O[C@@H](n4cnc5c(N)ncnc54)[C@H](O)[C@@H]3O)[C@@H](O)[C@H]2O)c1; assay: purified protein; format: biochemical, [Candida] boidinii; conditions: saturating formate, 25 mM sodium phosphate pH 7.0, 30 °C, FDH1 bound alone to TRAP1-3, apparent
[6] = biological target: the molecule itself; assay: SEC; each tagged enzyme alone; molecular weight estimated from the elution

Molecule: FDH1: formate dehydrogenase from Candida boidinii with peptide-1 (MEEVV) fused to its C-terminus (enzyme)
- stoichiometry N [1]: 2

- Kd (TRAP1-3): 34.9 µM
Molecule: NC(=O)C1=CN([C@@H]2O[C@H](COP(=O)(O)OP(=O)(O)OC[C@H]3O[C@@H](n4cnc5c(N)ncnc54)[C@H](O)[C@@H]3O)[C@@H](O)[C@H]2O)C=CC1 [NADH]

B1: AlaDH3@TRAP (Geobacillus stearothermophilus) (protein)
chain: MKIGIPKEIKNNENRVAITPAGVMTLVKAGHEVYVETEGGAGSGFSDSEYEKAGAADRCRTWRDAWTAEMVLKVKEPLAREFRYFRPGLILFTYLHLAAAERVTKAVVEQKVVGIAYETVQLANGSLPLLTPMSEVAGRMSVQVGAQFLEKPHGGKGILLGGVPGVRRGKVTIIGGGTAGTNAAKIGVGLGADVTILDINAERLRELDDLFGDHVTTLMSNSYHIAECVRESDLVVGAVLIPGAKAKLVTEEMVRSMTPGSVLVDIAIDQGGIFETTDRVTTHDDPTYVKHGVVHYAVANMPGAVPRTSTFALTNVTIPYALQIANKGYRAGCLDNPALLKGINTLDGHIVYEAVAAAHNMPYTDVHSLLHG
notes: AlaDH with C-terminal peptide-3 tag MRRVW, pET-28b(+), E. coli C41, Ni-NTA, His-tag removed by TEV; mass 44,323 (kDa [sic]); hexamer
- Km (purified protein [2]): 390 ± 50 µM
- Vmax (purified protein [2]): 41.3 µmol/min/mg
- kcat (purified protein [2]): 30.6 ± 1.9 s⁻¹
- kcat/Km (purified protein [2]): 79000 M⁻¹ s⁻¹
- Km (purified protein [3]): 360 ± 70 µM
- Vmax (purified protein [3]): 94.3 µmol/min/mg
- kcat (purified protein [3]): 69.9 ± 4.7 s⁻¹
- kcat/Km (purified protein [3]): 190000 M⁻¹ s⁻¹

B2: FDH1@TRAP ([Candida] boidinii) (protein)
chain: MKIVLVLYDAGKHAADEEKLYGCTENKLGIANWLKDQGHELITTSDKEGGNSVLDQHIPDADIIITTPFHPAYITKERIDKAKKLKLVVVAGVGSDHIDLDYINQTGKKISVLEVTGSNVVSVAEHVLMTMLVLVRNFVPAHEQIINHDWEVAAIAKDAYDIEGKTIATIGAGRIGYRVLERLVPFNPKELLYYDYQALPKDAEEKVGARRVENIEELVAQADIVTINAPLHAGTKGLINKELLSKFKKGAWLVNTARGAICVAEDVAAALESGQLRGYGGDVWFPQPAPKDHPWRDMRNKYGAGNAMTPHYSGTTLDAQTRYAEGTKNILESFFTGKFDYRPQDIILLNGEYITKAYGKHDKK
notes: FDH with C-terminal peptide-1 tag MEEVV, pET-28b(+), E. coli C41, Ni-NTA, His-tag removed by TEV; mass 45,137 (kDa [sic]); dimer; 5DNA as structure used for illustration
- Km (purified protein [4]): 2420 ± 1070 µM
- Vmax (purified protein [4]): 0.95 µmol/min/mg
- kcat (purified protein [4]): 0.7 ± 0.2 s⁻¹
- kcat/Km (purified protein [4]): 290 M⁻¹ s⁻¹
- Km (purified protein [5]): 270 ± 100 µM
- Vmax (purified protein [5]): 1.23 µmol/min/mg
- kcat (purified protein [5]): 0.9 ± 0.3 s⁻¹
- kcat/Km (purified protein [5]): 3500 M⁻¹ s⁻¹

B3: AlaDH3: alanine dehydrogenase from Bacillus stearothermophilus with peptide-3 (MRRVW) fused to its C-terminus (enzyme)
chain: MKIGIPKEIKNNENRVAITPAGVMTLVKAGHDVYVETEAGAGSGFSDSEYEKAGAVIVPNAEDAWTAEMVLKVKEPLAEEFRYFRPGLILFTYLHLAAAEALTKALVEQKVVGIAYETVQLANGSLPLLTPMSEVAGRMSVQVGAQFLEKPHGGKGILLGGVPGVRRGKVTIIGGGTAGTNAAKIAVGLGSDVTILDINAERLRELDDLFGDHVTTLMSNSYHIAECVRESDLVVGAVLIPGAKAPKLVTEEMVRSMTPGSVLVDIAIDQGGIFETTDRVTTHDDPTYVKHGVVHYAVANMPGAVPRTSTFALTNVTIPYALQIANKGYRAACLDNPALLKGINTLDGHIVYEAVAAAHNMPYTDVHSLLHGMRRVW
- stoichiometry N [6]: 6
